Publication PMC5360024, “The Alzheimer’s disease risk factors apolipoprotein E and TREM2 are linked in a receptor signaling pathway” (Journal of Neuroinflammation, 2017)

What was measured:
Conditions in all cases: both partners purified
Recombinant human TREM2 [1] = target: T1, Recombinant human TREM2 (human, UniProt Q9NZC2 19-174); experiment: ELISA; competition: human TREM2 (40 nM) coated; 6 nM ApoE ε2 with 0-6 μM ApoE-mim149 or scrambled peptide, 1 h at RT; bound full-length ApoE detected with polyclonal anti-ApoE; one site-fit Ki
T1 construct: Triggering receptor expressed on myeloid cells 2 (TREM2), human, recombinant; As I recall, this catalogue item is the extracellular domain with a C-terminal His tag; also called triggering receptor expressed on myeloid cells 2; hTREM2; source: bought: Sino Biological Inc. (#11084-H08H)
T1 sequence (looked up): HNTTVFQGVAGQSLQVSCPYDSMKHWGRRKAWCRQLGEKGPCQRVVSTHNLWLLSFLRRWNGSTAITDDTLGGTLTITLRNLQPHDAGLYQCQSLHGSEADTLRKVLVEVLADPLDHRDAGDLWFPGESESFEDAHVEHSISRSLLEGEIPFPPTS

Recombinant human TREM2 [2] = target: T1, Recombinant human TREM2; experiment: ELISA; competition: human TREM2 (40 nM) coated; 6 nM ApoE ε4 with 0-6 μM ApoE-mim149 or scrambled peptide, 1 h at RT; bound full-length ApoE detected with polyclonal anti-ApoE; one site-fit Ki
Recombinant human TREM2 [3] = target: T1, Recombinant human TREM2; experiment: ELISA; competition: human TREM2 (40 nM) coated; 6 nM ApoE ε3 with 0-6 μM ApoE-mim149 or scrambled peptide, 1 h at RT; bound full-length ApoE detected with polyclonal anti-ApoE; one site-fit Ki

- Ki (Recombinant human TREM2 [1]): 827 nM
- Ki (Recombinant human TREM2 [2]): 1540 nM
- Ki (Recombinant human TREM2 [3]): 475 nM
B1: ApoE-mimetic peptide corresponding to amino acids 130–149 (peptide)
peptide: Ac-TEELRVRLASHLRKLRKRLL-NH2
notes: also called ApoE-mim149; source: synthetic peptide, bought: GenScript
